# From US20070031832A1
# B1: 2c7pan14 (peptide, not shown: large carriers)
# chain: GDPNSRGKSREYLS
# B2: 2c7pan9 (peptide, not shown: large carriers)
# chain: GDPNSASGTA
# B3: 2c7pan42 (peptide, not shown: large carriers)
# chain: GDPNSSSVDKLGYWRVTESSNE
# B4: 2c7pan26 (peptide, not shown: large carriers)
# chain: GDPRTHR
# B5: 2c7pan8 (peptide, not shown: large carriers)
# chain: GDPNSSTSPR
# Target: anti-Der p 1 monoclonal antibody 2C7
# Assay: T7-DELFIA, comparison phage on 2C7-coated wells, time resolved fluorometry
row,TRF [TRF],Molecule
1,500,T7wt

# Target: anti-Der p 1 monoclonal antibody 2C7
# Assay: T7-DELFIA, 50 µl phage lysate on 2C7-coated wells, time resolved fluorometry
row,TRF [TRF],Molecule
1,1800,B1
2,17000,B2
3,64000,B3
4,8500,B4
5,1900,B5
